Key:
[1] = target: mIFNAR2-ECD C94S (extracellular domain of mouse IFNAR2, His-tagged) (mouse) (UniProt O35664); assay: SPR, ProteOn XPR36, His-tagged receptor on HTG chip, Langmuir model, mean of 10 experiments
[2] = target: T1, huIFNAR2 (human, UniProt P48551 27-243, limits assumed); assay: microscale thermophoresis (MST), E. coli expressed huIFNε
T1 sequence (looked up): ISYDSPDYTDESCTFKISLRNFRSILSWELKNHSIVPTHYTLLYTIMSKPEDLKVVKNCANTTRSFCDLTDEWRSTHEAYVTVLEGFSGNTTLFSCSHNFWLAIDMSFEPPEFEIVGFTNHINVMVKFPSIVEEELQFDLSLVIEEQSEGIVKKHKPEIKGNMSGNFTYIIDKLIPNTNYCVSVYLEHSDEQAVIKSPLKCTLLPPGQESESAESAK

[3] = target: T1, huIFNAR2; assay: microscale thermophoresis (MST)
[4] = target: T2, mIFNAR1-ECD (extracellular domain of mouse IFNAR1, His-tagged) (mouse, UniProt P33896 27-429); assay: SPR, ProteOn XPR36, His-tagged receptor on HTG chip, Langmuir model, n=9 experiments
T2 construct: extracellular domain; The tag is placed at the C-terminus here only for lack of information; not shown: His-tag
T2 sequence (looked up): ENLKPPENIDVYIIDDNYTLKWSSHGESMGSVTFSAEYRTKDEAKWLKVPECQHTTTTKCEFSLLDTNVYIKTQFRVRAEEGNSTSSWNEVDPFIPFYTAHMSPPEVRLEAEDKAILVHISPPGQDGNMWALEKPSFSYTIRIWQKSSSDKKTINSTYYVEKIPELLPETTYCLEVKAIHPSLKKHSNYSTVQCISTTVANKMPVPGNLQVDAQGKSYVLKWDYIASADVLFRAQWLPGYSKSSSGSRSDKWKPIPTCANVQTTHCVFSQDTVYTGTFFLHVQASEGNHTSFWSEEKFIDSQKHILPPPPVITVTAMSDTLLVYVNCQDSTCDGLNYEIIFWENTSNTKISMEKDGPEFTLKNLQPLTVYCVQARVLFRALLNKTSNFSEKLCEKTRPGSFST
Procedure: (§1) For Surface Plasmon Resonance (SPR), mIFNAR1-ECD and rmIFN were expressed and purified from mammalian cell and insect cell culture, respectively, as previously described (Stifter et al. (2014) Protein Expr Purif 94:7-14); mIFNAR2-ECDC94S and rmIFN 1 were expressed and purified from mammalian cell culture also as previously described (de Weerd et al. (2013) supra). huIFNε is produced in a similar manner All SPR experiments were carried out on a ProteOn XPR36 (Bio-Rad Labs) using a HTG chip for His-tagged proteins and TBS as the running buffer. mIFNAR1-ECD and mIFNAR2-ECDC94S were immobilized to the nickel activated chip via the His-tags after dilution to […] in TBS. All IFNs (rmIFN 1, rmIFN and rmIFN) were diluted in TBS to various concentrations ranging from 40 nM to […]. All data were referenced according to the manufacturer's instructions (Bio-Rad) and analyzed using the Langmuir binding model. Data were considered for inclusion in the analysis only if the Chit value (the measure of error between measured and fitted values) was less than 10% of the Rₘₐₓ as per the manufacturer's instructions (Bio-Rad). Kₐ (1/Ms), Kd (1/s) and KD (nM) were calculated by the ProteOn Manager software and are represented as mean (+SD) from at least triplicate experiments. Significance was determined using one-way ANOVA with Dunnett's multiple comparisons testing. […]

[5] = target: mIFNAR2-ECD C94S (extracellular domain of mouse IFNAR2, His-tagged) (mouse) (UniProt O35664); assay: SPR, ProteOn XPR36, His-tagged receptor on HTG chip
[6] = target: T2, mIFNAR1-ECD (extracellular domain of …); assay: as above
Procedure: as §1

[7] = target: T2, mIFNAR1-ECD (extracellular domain of …); assay: SPR, ProteOn XPR36, His-tagged receptor on HTG chip, Langmuir model, n=10 experiments
Procedure: as §1

Chain of mIFNAR2-ECD C94S (extracellular domain of mouse IFNAR2, His-tagged) (mouse) (O35664 22-242, stated change not applied): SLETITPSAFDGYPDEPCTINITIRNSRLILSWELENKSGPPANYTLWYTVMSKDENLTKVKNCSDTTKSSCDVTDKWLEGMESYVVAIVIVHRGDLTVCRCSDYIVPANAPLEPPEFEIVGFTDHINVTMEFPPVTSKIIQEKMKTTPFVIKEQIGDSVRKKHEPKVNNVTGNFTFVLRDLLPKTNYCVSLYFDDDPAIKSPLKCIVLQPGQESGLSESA

recombinant murine interferon alpha 1 (rmIFNα1) (from UniProt P01572 24-189) (ligand)
Kd [1]: 1.68 nM

B1: human interferon epsilon (huIFNε), E. coli expressed and refolded (ligand)
chain: LDLKLIIFQQRQVNQESLKLLNKLQTLSIQQCLPHRKNFLLPQKSLSPQQYQKGHTLAILHEMLQQIFSLFRANISLDGWEENHTEKFLIQLHQQLEYLEALMGLEAEKLSGTLGSDNLRLQVKMYFRRIHDYLENQDYSTCAWAIVQVEISRCLFFVFSLTEKLSKQGRPLNDMKQELTTEFRSPRSA
notes: also called hIFN; rhIFN
Kd [2]: 8190 nM

B2: huIFNβ (ligand, human, UniProt P01574 22-187, looked up)
chain: MSYNLLGFLQRSSNFQCQKLLWQLNGRLEYCLKDRMNFDIPEEIKQLQQFQKEDAALTIYEMLQNIFAIFRQDSSSTGWNETIVENLLANVYHQINHLKTVLEEKLEKEDFTRGKLMSSLHLKRYYGRILHYLKAKEYSHCAWTIVRVEILRNFYFINRLTGYLRN
notes: Comparator in the MST measurement; The source of the protein is not clearly stated; also called rhuIFNβ
Kd [3]: 0.25 nM

B3: recombinant murine interferon epsilon (rmIFNε) (ligand)
chain: LEPKRIPFQLWMNRESLQLLKPLPSSSVQQCLAHRKNFLLPQQPVSPHQYQEGQVLAVVHEILQQIFTLLQTHGTMGIWEENHIEKVLAALHRQLEYVESLGGLNAAQKSGGSSAQNLRLQIKAYFRRIHDYLENQRYSSCAWIIVQTEIHRCMFFVFRFTTWLSRQDPDP
notes: also called muIFNε; MuIFNε
Kd [4]: 556 nM
fold lower affinity than rmIFNα1 [5]: > 1000 fold
fold lower affinity than the rmIFNβ-IFNAR1-ECD interaction [6]: ~200 fold

B4: recombinant murine interferon beta (rmIFNβ) (ligand, UniProt P01575 22-182, looked up)
chain: INYKQLQLQERTNIRKCQELLEQLNGKINLTYRADFKIPMEMTEKMQKSYTAFAIQEMLQNVFLVFRNNFSSTGWNETIVVRLLDELHQQTVFLKTVLEEKQEERLTWEMSSTALHLKSYYWRVQRYLKLMKYNSYAWMVVRAEIFRNFLIIRRLTRNFQN
notes: Printed as 'rmIFN' with the Greek letter lost
Kd [7]: 2.45 nM
